For two substances, stoichiometry N results are on record in article doi:10.1101/2025.03.07.641123.

Test [1] addresses TW2 (TrpR-Geminin coiled-coil-SpyTag-Geminin coiled-coil-MetJ) (UniProt P0A881). Nature of the test: mass photometry.
The target in test [2] is TW1 (DtxR-Geminin coiled-coil-SpyCatcher) (UniProt P0DJL7). Kind of test: mass photometry.

Regarding “TW2 (TrpR-Geminin coiled-coil-SpyTag-Geminin coiled-coil-MetJ) (from UniProt P0A881 2-108; O75496 110-145; O75496 110-145; P0A8U6 2-105)”, the stoichiometry N in test [1] was determined as 2.

With “TW1 (DtxR-Geminin coiled-coil-SpyCatcher) (from UniProt P0DJL7 2-121; O75496 110-145)”, the stoichiometry N in test [2] amounted to 2.

One may read the stoichiometry N as a count of units in the complex or per binding partner.
